The record followed here is patent publication EP0959899A1.

Assay [1] concerns the target human CD2 (CD2 antigen, entire CD2 molecule) (human) (UniProt P06729). The assay can be described thus: flow cytometry, two colour staining of PBMC with biotinylated LO-CD2a and Leu-5bPE (Figure 1).
For assay [2] the target is unchanged. Description: flow cytometry on PBMC cultured with 500 ng/ml LO-CD2a, bound antibody detected with MARK-3-FITC (Figure 5a).
The target is the same in assay [3]. Description: flow cytometry, two colour staining of human PBMC (data not shown).

Chain of UniProt P06729 (P06729 25-351): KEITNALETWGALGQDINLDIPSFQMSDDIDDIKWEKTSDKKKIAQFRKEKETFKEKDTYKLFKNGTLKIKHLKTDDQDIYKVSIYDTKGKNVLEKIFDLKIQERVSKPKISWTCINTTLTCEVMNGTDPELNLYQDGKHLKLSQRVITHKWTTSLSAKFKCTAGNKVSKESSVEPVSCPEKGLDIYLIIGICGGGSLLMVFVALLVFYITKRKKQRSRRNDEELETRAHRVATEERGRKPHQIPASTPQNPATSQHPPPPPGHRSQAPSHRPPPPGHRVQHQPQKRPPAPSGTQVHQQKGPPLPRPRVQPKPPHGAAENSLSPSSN

As for “LO-CD2a rat (IgG2b-Kappa) anti-CD2 monoclonal antibody, produced by the cell line ATCC HB 11423”, in assay [1], the % gated cells in the upper right (double positive) quadrant amounted to 66 % gated and the % total cells in the upper right (double positive) quadrant was 17 % total. For the same substance, in assay [2], the percent of cells labelled by MARK-3 (bound LO-CD2a) at day 6 of culture stood at 50%. This substance gave a percent of the population marked by T11 that is recognized in assay [3] of 90%.
In assay [1], “Leu-5b, mouse anti-human-CD2 monoclonal antibody (Becton Dickinson)” returned a % gated cells in the upper right (double positive) quadrant of 66 % gated and a % total cells in the upper right (double positive) quadrant of 17 % total.
